Measured values: publication PMC9838878 (Science (New York, N.Y.), 2022)

Molecular target: recombinant KIT-extracellular domain-Fc fragment fusion protein (KIT-ECD-Fc) (human, UniProt P10721 26-524)
Test: MST

Sequence of recombinant KIT-extracellular domain-Fc fragment fusion protein (KIT-ECD-Fc) (P10721 26-524): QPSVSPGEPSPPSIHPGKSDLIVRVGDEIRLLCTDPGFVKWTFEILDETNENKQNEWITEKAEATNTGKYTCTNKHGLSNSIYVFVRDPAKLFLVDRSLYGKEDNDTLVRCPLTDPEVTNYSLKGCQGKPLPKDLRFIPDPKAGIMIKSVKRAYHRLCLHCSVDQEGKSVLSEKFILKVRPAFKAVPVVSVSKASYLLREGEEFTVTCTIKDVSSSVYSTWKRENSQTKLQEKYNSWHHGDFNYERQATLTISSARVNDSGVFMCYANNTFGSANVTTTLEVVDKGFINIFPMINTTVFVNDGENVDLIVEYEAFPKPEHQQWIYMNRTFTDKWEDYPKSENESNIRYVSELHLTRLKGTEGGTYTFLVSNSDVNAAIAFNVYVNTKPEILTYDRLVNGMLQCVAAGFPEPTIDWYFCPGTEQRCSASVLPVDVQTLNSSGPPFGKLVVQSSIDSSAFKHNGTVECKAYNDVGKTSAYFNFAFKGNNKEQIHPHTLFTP

binding result: binds
B1: meteorin-like (METRNL), protein added as ligand (ligand, human, UniProt Q641Q3 46-311, looked up)
chain: QYSSDRCSWKGSGLTHEAHRKEVEQVYLRCAAGAVEWMYPTGALIVNLRPNTFSPARHLTVCIRSFTDSSGANIYLEKTGELRLLVPDGDGRPGRVQCFGLEQGGLFVEATPQQDIGRRTTGFQYELVRRHRASDLHELSAPCRPCSDTEVLLAVCTSDFAVRGSIQQVTHEPERQDSAIHLRVSRLYRQKSRVFEPVPEGDGHWQGRVRTLLECGVRPGHGDFLFTGHMHFGEARLGCAPRFKDFQRMYRDAQERGLNPCEVGTD
